According to PMC9482650, “Quantitative fragmentomics allow affinity mapping of interactomes” (Nature Communications, 2022):

T1: APBA2_1, Q99767
T1 sequence (Q99767 563-664, limits assumed, looked up): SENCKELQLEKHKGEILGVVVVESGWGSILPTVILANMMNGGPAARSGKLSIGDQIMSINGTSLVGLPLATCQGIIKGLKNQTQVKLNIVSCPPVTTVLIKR

T2: ARHGEF11, O15085
T2 sequence (O15085 42-136, limits assumed, looked up): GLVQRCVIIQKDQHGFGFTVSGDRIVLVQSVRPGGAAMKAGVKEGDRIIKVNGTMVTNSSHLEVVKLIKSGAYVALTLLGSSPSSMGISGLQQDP

T3: DFNB31_1, Q9P202
T3 sequence (Q9P202 135-233, limits assumed, looked up): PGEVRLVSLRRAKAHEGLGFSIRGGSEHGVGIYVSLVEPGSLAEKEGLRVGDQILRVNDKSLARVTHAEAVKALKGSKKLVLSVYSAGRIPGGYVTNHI

T4: DFNB31_3, Q9P202
T4 sequence (Q9P202 811-907, limits assumed, looked up): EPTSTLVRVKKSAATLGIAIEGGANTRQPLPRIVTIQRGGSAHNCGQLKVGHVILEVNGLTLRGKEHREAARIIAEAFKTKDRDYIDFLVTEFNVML

T5: DLG3_1, Q92796
T5 sequence (Q92796 125-227, limits assumed, looked up): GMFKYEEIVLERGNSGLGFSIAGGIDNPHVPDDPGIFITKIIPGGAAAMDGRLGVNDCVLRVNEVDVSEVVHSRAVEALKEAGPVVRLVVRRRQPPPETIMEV

T6: LIN7C, Q9NUP9
T6 sequence (Q9NUP9 88-185, limits assumed, looked up): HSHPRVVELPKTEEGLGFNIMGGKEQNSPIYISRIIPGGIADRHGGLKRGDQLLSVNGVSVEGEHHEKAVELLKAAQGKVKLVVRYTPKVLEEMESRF

T7: LRRC7, Q96NW7
T7 sequence (Q96NW7 1440-1537, limits assumed, looked up): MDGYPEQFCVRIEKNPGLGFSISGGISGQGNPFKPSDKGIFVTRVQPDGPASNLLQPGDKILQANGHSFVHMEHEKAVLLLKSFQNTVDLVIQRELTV

T8: MPDZ_12, O75970
T8 sequence (O75970 1857-1958, limits assumed, looked up): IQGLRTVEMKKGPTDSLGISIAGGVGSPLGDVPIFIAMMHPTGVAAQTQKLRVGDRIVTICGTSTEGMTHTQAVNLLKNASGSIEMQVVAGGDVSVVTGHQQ

T9: NHERF3_4, Q5T2W1
T9 sequence (Q5T2W1 373-468, limits assumed, looked up): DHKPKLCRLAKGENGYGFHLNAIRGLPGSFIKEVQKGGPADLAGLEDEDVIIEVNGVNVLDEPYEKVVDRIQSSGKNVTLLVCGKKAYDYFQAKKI

T10: PDZRN3_1, Q9UPQ7
T10 sequence (Q9UPQ7 244-349, limits assumed, looked up): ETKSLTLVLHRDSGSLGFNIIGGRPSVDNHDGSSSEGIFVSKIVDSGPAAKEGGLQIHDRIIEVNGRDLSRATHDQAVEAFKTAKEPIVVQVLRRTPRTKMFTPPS

T11: PTPN13_1, Q12923
T11 sequence (Q12923 1088-1188, limits assumed, looked up): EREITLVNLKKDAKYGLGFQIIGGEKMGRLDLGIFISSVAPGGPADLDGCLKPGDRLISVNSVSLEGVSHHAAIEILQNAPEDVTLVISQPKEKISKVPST

T12: TIAM2, Q8IVF5
T12 sequence (Q8IVF5 885-986, limits assumed, looked up): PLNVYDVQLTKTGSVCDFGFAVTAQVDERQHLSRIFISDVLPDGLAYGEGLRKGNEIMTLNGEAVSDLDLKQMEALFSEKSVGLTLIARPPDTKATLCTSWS


Assays:
Assay in all cases: holdup assay
Design in all cases: key: below the threshold = too weak to quantify, mostly under pKd 3.1 to 4
Conditions in all cases: plain residues with an end cap or a label only (N-terminal biotin on a linker: ado-ado)
AHNAK1, Q09666 = molecular target: AHNAK1, Q09666
APBA2_1, Q99767 = molecular target: T1, APBA2_1, Q99767
ARHGEF11, O15085 = molecular target: T2, ARHGEF11, O15085
DFNB31_1, Q9P202 = molecular target: T3, DFNB31_1, Q9P202
DFNB31_3, Q9P202 = molecular target: T4, DFNB31_3, Q9P202
DLG1_2, Q12959 = molecular target: DLG1_2, Q12959
DLG1_3, Q12959 = molecular target: DLG1_3, Q12959
DLG3_1, Q92796 = molecular target: T5, DLG3_1, Q92796
HTRA2, O43464 = molecular target: HTRA2, O43464
Inadl_1, Q8NI35 = molecular target: Inadl_1, Q8NI35
Inadl_9, Q8NI35 = molecular target: Inadl_9, Q8NI35
LIN7C, Q9NUP9 = molecular target: T6, LIN7C, Q9NUP9
LNX1_3, Q8TBB1 = molecular target: LNX1_3, Q8TBB1
LRRC7, Q96NW7 = molecular target: T7, LRRC7, Q96NW7
MAGI1_1, Q96QZ7 = molecular target: MAGI1_1, Q96QZ7
MAGI2_6, Q86UL8 = molecular target: MAGI2_6, Q86UL8
MAST2, Q6P0Q8 = molecular target: MAST2, Q6P0Q8
MPDZ_12, O75970 = molecular target: T8, MPDZ_12, O75970
NHERF2_2, Q15599 = molecular target: NHERF2_2, Q15599
NHERF3_4, Q5T2W1 = molecular target: T9, NHERF3_4, Q5T2W1
NHERF4_2, Q86UT5 = molecular target: NHERF4_2, Q86UT5
NHERF4_4, Q86UT5 = molecular target: NHERF4_4, Q86UT5
PDZRN3_1, Q9UPQ7 = molecular target: T10, PDZRN3_1, Q9UPQ7
PTPN13_1, Q12923 = molecular target: T11, PTPN13_1, Q12923
TIAM2, Q8IVF5 = molecular target: T12, TIAM2, Q8IVF5
TJP1_3, Q07157 = molecular target: TJP1_3, Q07157
Sequence of TJP1_3, Q07157 (Q07157 416-512): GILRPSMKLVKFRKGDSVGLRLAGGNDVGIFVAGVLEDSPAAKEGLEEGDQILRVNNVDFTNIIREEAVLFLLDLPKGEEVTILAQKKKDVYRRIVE

Sequence of DLG1_3, Q12959 (Q12959 457-571): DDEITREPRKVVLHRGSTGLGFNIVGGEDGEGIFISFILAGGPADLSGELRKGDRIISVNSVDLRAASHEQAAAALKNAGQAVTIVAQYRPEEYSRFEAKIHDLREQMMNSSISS
Sequence of Inadl_1, Q8NI35 (Q8NI35 113-229): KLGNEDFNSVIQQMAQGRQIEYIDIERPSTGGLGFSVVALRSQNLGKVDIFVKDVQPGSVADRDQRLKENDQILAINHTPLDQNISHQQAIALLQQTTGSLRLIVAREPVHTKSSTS
Sequence of LNX1_3, Q8TBB1 (Q8TBB1 500-596): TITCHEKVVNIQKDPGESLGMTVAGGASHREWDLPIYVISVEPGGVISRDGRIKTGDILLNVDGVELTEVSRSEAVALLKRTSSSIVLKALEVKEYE
Sequence of Inadl_9, Q8NI35 (Q8NI35 1530-1615): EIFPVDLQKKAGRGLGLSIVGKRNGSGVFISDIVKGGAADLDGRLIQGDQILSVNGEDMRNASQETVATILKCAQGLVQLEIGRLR
Sequence of HTRA2, O43464 (O43464 355-458): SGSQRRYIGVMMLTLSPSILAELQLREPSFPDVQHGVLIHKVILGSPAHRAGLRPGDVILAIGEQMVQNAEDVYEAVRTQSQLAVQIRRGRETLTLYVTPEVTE
Sequence of NHERF2_2, Q15599 (Q15599 142-238): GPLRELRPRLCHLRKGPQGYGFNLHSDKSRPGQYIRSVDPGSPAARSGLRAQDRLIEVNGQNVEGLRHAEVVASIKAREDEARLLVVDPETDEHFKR
Sequence of MAGI1_1, Q96QZ7 (Q96QZ7 1-106): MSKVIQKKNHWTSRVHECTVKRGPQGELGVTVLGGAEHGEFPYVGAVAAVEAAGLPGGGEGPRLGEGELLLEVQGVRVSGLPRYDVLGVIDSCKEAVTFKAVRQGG
Sequence of NHERF4_4, Q86UT5 (Q86UT5 464-550): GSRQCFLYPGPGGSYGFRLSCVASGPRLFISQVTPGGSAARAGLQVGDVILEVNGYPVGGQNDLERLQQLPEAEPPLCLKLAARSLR
Sequence of DLG1_2, Q12959 (Q12959 314-412): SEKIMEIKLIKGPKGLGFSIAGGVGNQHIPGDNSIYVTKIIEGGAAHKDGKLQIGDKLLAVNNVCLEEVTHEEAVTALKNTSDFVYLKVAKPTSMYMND
Sequence of MAST2, Q6P0Q8 (Q6P0Q8 1099-1202): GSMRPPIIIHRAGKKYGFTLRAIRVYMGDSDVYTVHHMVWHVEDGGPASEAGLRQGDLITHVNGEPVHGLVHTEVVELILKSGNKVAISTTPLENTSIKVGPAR
Sequence of AHNAK1, Q09666 (Q09666 4-100): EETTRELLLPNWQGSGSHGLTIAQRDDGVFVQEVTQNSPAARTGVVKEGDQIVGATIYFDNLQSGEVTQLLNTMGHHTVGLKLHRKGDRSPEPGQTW
Sequence of MAGI2_6, Q86UL8 (Q86UL8 1141-1229): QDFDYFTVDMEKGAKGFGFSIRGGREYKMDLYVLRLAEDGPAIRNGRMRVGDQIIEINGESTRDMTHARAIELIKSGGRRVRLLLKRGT
Sequence of NHERF4_2, Q86UT5 (Q86UT5 220-308): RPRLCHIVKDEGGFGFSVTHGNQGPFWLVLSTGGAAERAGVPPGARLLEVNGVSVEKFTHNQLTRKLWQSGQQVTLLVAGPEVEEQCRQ

pKd (AHNAK1, Q09666)	pKd (APBA2_1, Q99767)	pKd (ARHGEF11, O15085)	pKd (DFNB31_1, Q9P202)	pKd (DFNB31_3, Q9P202)	pKd (DLG1_2, Q12959)	pKd (DLG1_3, Q12959)	pKd (DLG3_1, Q92796)	pKd (HTRA2, O43464)	pKd (Inadl_1, Q8NI35)	pKd (Inadl_9, Q8NI35)	pKd (LIN7C, Q9NUP9)	pKd (LNX1_3, Q8TBB1)	pKd (LRRC7, Q96NW7)	pKd (MAGI1_1, Q96QZ7)	pKd (MAGI2_6, Q86UL8)	pKd (MAST2, Q6P0Q8)	pKd (MPDZ_12, O75970)	pKd (NHERF2_2, Q15599)	pKd (NHERF3_4, Q5T2W1)	Binder	also measured
below the threshold	below the threshold	4.45	below the threshold	below the threshold	4.72	below the threshold	4.06	below the threshold	below the threshold	3.64	below the threshold	below the threshold	below the threshold	below the threshold	3.49	5.2	below the threshold	3.82	below the threshold	VISERNSTTV [C3AR1, Q16581]	pKd (NHERF4_2, Q86UT5): below the threshold; pKd (NHERF4_4, Q86UT5): below the threshold; pKd (PDZRN3_1, Q9UPQ7): below the threshold; pKd (PTPN13_1, Q12923): below the threshold; pKd (TIAM2, Q8IVF5): below the threshold; pKd (TJP1_3, Q07157): below the threshold
below the threshold	below the threshold	4.65	3.98	4.31	5.44	5.01	4.38	3.56	below the threshold	3.75	4.47	below the threshold	below the threshold	below the threshold	4.4	5.59	below the threshold	below the threshold	below the threshold	REVVMRVTTV [MARCHF9, Q86YJ5]	pKd (NHERF4_2, Q86UT5): 3.49; pKd (NHERF4_4, Q86UT5): below the threshold; pKd (PDZRN3_1, Q9UPQ7): 3.81; pKd (PTPN13_1, Q12923): below the threshold; pKd (TIAM2, Q8IVF5): 3.85; pKd (TJP1_3, Q07157): below the threshold
below the threshold	below the threshold	4.56	4.2	below the threshold	5.14	4.09	4.51	below the threshold	below the threshold	3.89	4.79	below the threshold	below the threshold	below the threshold	4.45	5.46	below the threshold	4.33	below the threshold	QELLEYETTV [XKR7, Q5GH72]	pKd (NHERF4_2, Q86UT5): below the threshold; pKd (NHERF4_4, Q86UT5): below the threshold; pKd (PDZRN3_1, Q9UPQ7): 4.33; pKd (PTPN13_1, Q12923): below the threshold; pKd (TIAM2, Q8IVF5): below the threshold; pKd (TJP1_3, Q07157): below the threshold
below the threshold	below the threshold	3.47	3.74	below the threshold	4.29	below the threshold	below the threshold	below the threshold	below the threshold	below the threshold	below the threshold	below the threshold	below the threshold	below the threshold	3.69	5.45	below the threshold	4.05	3.53	WRSKRTDTLL [RAMP3, O60896]	pKd (NHERF4_2, Q86UT5): below the threshold; pKd (NHERF4_4, Q86UT5): below the threshold; pKd (PDZRN3_1, Q9UPQ7): 3.73; pKd (PTPN13_1, Q12923): below the threshold; pKd (TIAM2, Q8IVF5): below the threshold; pKd (TJP1_3, Q07157): below the threshold
below the threshold	below the threshold	below the threshold	below the threshold	3.65	below the threshold	below the threshold	below the threshold	below the threshold	below the threshold	3.58	below the threshold	below the threshold	below the threshold	below the threshold	below the threshold	3.73	below the threshold	below the threshold	below the threshold	PDGEMMEVLI [AMOTL1, Q8IY63]	pKd (NHERF4_2, Q86UT5): below the threshold; pKd (NHERF4_4, Q86UT5): below the threshold; pKd (PDZRN3_1, Q9UPQ7): below the threshold; pKd (PTPN13_1, Q12923): below the threshold; pKd (TIAM2, Q8IVF5): 3.86; pKd (TJP1_3, Q07157): below the threshold
